Test results: the supplement of paper PMC9112550, “Optimization of the antimicrobial peptide Bac7 by deep mutational scanning” (BMC Biology, 2022)

System: Escherichia coli TOP10
Assay: shrunken log2 fold change of peptide-encoding DNA abundance (4.5 h post-induction vs induction); higher = less antimicrobial activity (less host growth inhibition)
Details: time post-induction: 4.5 h; library: site-saturation at positions 5, 18, 19, 20
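Also: peptides expressed intracellularly from a pBAD plasmid library in pooled LB shake-flask culture, induced with 0.3% L-arabinose, DNA abundance read by NGS, three biological replicates, DESeq2 with apeglm shrinkage.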

## RRIRRRPPRLPRPRPRPKAPPRP
  shrunken log2 fold change: 0.0122

## RRIRARPPRLPRPRPRPNHSPRP
  shrunken log2 fold change: -0.55

## RRIRERPPRLPRPRPRPVKWPRP
  shrunken log2 fold change: -0.129

## RRIRTRPPRLPRPRPRPRDMPRP
  shrunken log2 fold change: 0.161

## RRIRERPPRLPRPRPRPQQSPRP
  shrunken log2 fold change: -0.05

## RRIRCRPPRLPRPRPRPIIWPRP
  shrunken log2 fold change: -0.178

## RRIRHRPPRLPRPRPRPVPPPRP
  shrunken log2 fold change: 0.244

## RRIRKRPPRLPRPRPRPQWIPRP
  shrunken log2 fold change: 0.00082

## RRIRERPPRLPRPRPRPFPPPRP
  shrunken log2 fold change: -0.38

## RRIRCRPPRLPRPRPRPTCSPRP
  shrunken log2 fold change: -0.157

## RRIRMRPPRLPRPRPRPIIGPRP
  shrunken log2 fold change: -0.00776

## RRIRWRPPRLPRPRPRPECDPRP
  shrunken log2 fold change: 1.93

## RRIRSRPPRLPRPRPRPLSFPRP
  shrunken log2 fold change: -0.24

## RRIRSRPPRLPRPRPRPHTHPRP
  shrunken log2 fold change: -0.419

## RRIRTRPPRLPRPRPRPWDRPRP
  shrunken log2 fold change: -0.105

## RRIRLRPPRLPRPRPRPHFMPRP
  shrunken log2 fold change: 0.0603

## RRIRGRPPRLPRPRPRPMPCPRP
  shrunken log2 fold change: 0.104

## RRIRPRPPRLPRPRPRPMEAPRP
  shrunken log2 fold change: 0.177

## RRIRSRPPRLPRPRPRPSSAPRP
  shrunken log2 fold change: -0.0109

## RRIRNRPPRLPRPRPRPTFKPRP
  shrunken log2 fold change: -0.175

## RRIRCRPPRLPRPRPRPPRLPRP
  shrunken log2 fold change: 0.873

## RRIRMRPPRLPRPRPRPPPIPRP
  shrunken log2 fold change: 1.47

## RRIRLRPPRLPRPRPRPDNDPRP
  shrunken log2 fold change: -0.228

## RRIRVRPPRLPRPRPRPWKGPRP
  shrunken log2 fold change: 0.103

## RRIRKRPPRLPRPRPRPTPIPRP
  shrunken log2 fold change: 0.639

## RRIRSRPPRLPRPRPRPVVTPRP
  shrunken log2 fold change: 0.021

## RRIRIRPPRLPRPRPRPHNMPRP
  shrunken log2 fold change: -0.898

## RRIRVRPPRLPRPRPRPFILPRP
  shrunken log2 fold change: -0.384

## RRIRCRPPRLPRPRPRPVEMPRP
  shrunken log2 fold change: 0.0203

## RRIRVRPPRLPRPRPRPGYWPRP
  shrunken log2 fold change: 0.0156

## RRIRVRPPRLPRPRPRPYFTPRP
  shrunken log2 fold change: -0.689

## RRIRLRPPRLPRPRPRPLLIPRP
  shrunken log2 fold change: -0.514

## RRIRKRPPRLPRPRPRPPKGPRP
  shrunken log2 fold change: 0.333

## RRIRVRPPRLPRPRPRPDMTPRP
  shrunken log2 fold change: -0.0435

## RRIRLRPPRLPRPRPRPKMSPRP
  shrunken log2 fold change: -0.0245

## RRIRSRPPRLPRPRPRPTMVPRP
  shrunken log2 fold change: 0.0872

## RRIRHRPPRLPRPRPRPFWNPRP
  shrunken log2 fold change: 0.034

## RRIRGRPPRLPRPRPRPGPYPRP
  shrunken log2 fold change: 0.324

## RRIRARPPRLPRPRPRPYMLPRP
  shrunken log2 fold change: -0.659

## RRIRYRPPRLPRPRPRPGWLPRP
  shrunken log2 fold change: 0.0173

## RRIRWRPPRLPRPRPRPHDTPRP
  shrunken log2 fold change: 0.0511

## RRIRFRPPRLPRPRPRPIVEPRP
  shrunken log2 fold change: 0.0776

## RRIRWRPPRLPRPRPRPSMEPRP
  shrunken log2 fold change: 0.0397

## RRIRQRPPRLPRPRPRPNPDPRP
  shrunken log2 fold change: -0.0331

## RRIRSRPPRLPRPRPRPQVTPRP
  shrunken log2 fold change: -0.196

## RRIRIRPPRLPRPRPRPMMIPRP
  shrunken log2 fold change: -0.0366

## RRIRKRPPRLPRPRPRPFNPPRP
  shrunken log2 fold change: -0.0407

## RRIRYRPPRLPRPRPRPKRAPRP
  shrunken log2 fold change: 0.28

## RRIRPRPPRLPRPRPRPTNNPRP
  shrunken log2 fold change: -0.329

## RRIRCRPPRLPRPRPRPKNIPRP
  shrunken log2 fold change: -0.607

## RRIRSRPPRLPRPRPRPELCPRP
  shrunken log2 fold change: -0.0749

## RRIRFRPPRLPRPRPRPESIPRP
  shrunken log2 fold change: -0.126

## RRIRQRPPRLPRPRPRPWFCPRP
  shrunken log2 fold change: -0.282

## RRIRTRPPRLPRPRPRPYFEPRP
  shrunken log2 fold change: -0.223

## RRIRTRPPRLPRPRPRPLRKPRP
  shrunken log2 fold change: 0.258

## RRIRNRPPRLPRPRPRPCGFPRP
  shrunken log2 fold change: -0.0155

## RRIRARPPRLPRPRPRPPNWPRP
  shrunken log2 fold change: 0.59

## RRIRCRPPRLPRPRPRPAFAPRP
  shrunken log2 fold change: 0.134

## RRIRIRPPRLPRPRPRPAACPRP
  shrunken log2 fold change: 0.156

## RRIRYRPPRLPRPRPRPDAKPRP
  shrunken log2 fold change: -0.118

## RRIRRRPPRLPRPRPRPQTQPRP
  shrunken log2 fold change: 0.506

## RRIRKRPPRLPRPRPRPKWYPRP
  shrunken log2 fold change: -0.235

## RRIRDRPPRLPRPRPRPKYSPRP
  shrunken log2 fold change: -0.0792

## RRIRCRPPRLPRPRPRPYSFPRP
  shrunken log2 fold change: -0.414

## RRIRCRPPRLPRPRPRPQFPPRP
  shrunken log2 fold change: -0.17

## RRIRARPPRLPRPRPRPCMCPRP
  shrunken log2 fold change: 0.118

## RRIRMRPPRLPRPRPRPMNNPRP
  shrunken log2 fold change: -0.411

## RRIRGRPPRLPRPRPRPAFFPRP
  shrunken log2 fold change: 0.787

## RRIRFRPPRLPRPRPRPVGLPRP
  shrunken log2 fold change: 0.0115

## RRIRLRPPRLPRPRPRPCPRPRP
  shrunken log2 fold change: 0.0559

## RRIRKRPPRLPRPRPRPFSFPRP
  shrunken log2 fold change: 0.0267

## RRIRPRPPRLPRPRPRPLPNPRP
  shrunken log2 fold change: 0.0283

## RRIRLRPPRLPRPRPRPTNNPRP
  shrunken log2 fold change: -0.524

## RRIRGRPPRLPRPRPRPELYPRP
  shrunken log2 fold change: 1.14

## RRIRDRPPRLPRPRPRPTQRPRP
  shrunken log2 fold change: 0.746

## RRIRSRPPRLPRPRPRPMSMPRP
  shrunken log2 fold change: -0.293

## RRIRCRPPRLPRPRPRPQICPRP
  shrunken log2 fold change: 0.0827

## RRIRGRPPRLPRPRPRPFRDPRP
  shrunken log2 fold change: 0.0814

## RRIRVRPPRLPRPRPRPQRRPRP
  shrunken log2 fold change: 0.0241

## RRIRPRPPRLPRPRPRPTSGPRP
  shrunken log2 fold change: 0.173

## RRIRIRPPRLPRPRPRPKFQPRP
  shrunken log2 fold change: -0.327

## RRIRCRPPRLPRPRPRPRAYPRP
  shrunken log2 fold change: -0.35

## RRIRCRPPRLPRPRPRPFFTPRP
  shrunken log2 fold change: -0.0887

## RRIRERPPRLPRPRPRPDYVPRP
  shrunken log2 fold change: -0.00136

## RRIRDRPPRLPRPRPRPVHIPRP
  shrunken log2 fold change: -0.144

## RRIRLRPPRLPRPRPRPRECPRP
  shrunken log2 fold change: -0.104

## RRIRSRPPRLPRPRPRPKKSPRP
  shrunken log2 fold change: -0.0117

## RRIRIRPPRLPRPRPRPHVVPRP
  shrunken log2 fold change: -0.0217

## RRIRLRPPRLPRPRPRPMCFPRP
  shrunken log2 fold change: -0.332

## RRIRLRPPRLPRPRPRPPASPRP
  shrunken log2 fold change: 0.561

## RRIRHRPPRLPRPRPRPKWGPRP
  shrunken log2 fold change: 0.177

## RRIRFRPPRLPRPRPRPESSPRP
  shrunken log2 fold change: 0.113

## RRIRIRPPRLPRPRPRPPWYPRP
  shrunken log2 fold change: -0.394

## RRIRTRPPRLPRPRPRPSWVPRP
  shrunken log2 fold change: -0.165

## RRIRPRPPRLPRPRPRPWNAPRP
  shrunken log2 fold change: -0.118

## RRIRYRPPRLPRPRPRPSAKPRP
  shrunken log2 fold change: -0.117

## RRIRPRPPRLPRPRPRPCITPRP
  shrunken log2 fold change: -0.373

## RRIRERPPRLPRPRPRPRAAPRP
  shrunken log2 fold change: 0.448

## RRIRVRPPRLPRPRPRPHMQPRP
  shrunken log2 fold change: 0.0906

## RRIRSRPPRLPRPRPRPWHSPRP
  shrunken log2 fold change: -0.0018

## RRIRFRPPRLPRPRPRPVWAPRP
  shrunken log2 fold change: 0.137

## RRIRKRPPRLPRPRPRPYMHPRP
  shrunken log2 fold change: -0.0355

## RRIRGRPPRLPRPRPRPCTSPRP
  shrunken log2 fold change: 0.188

## RRIRVRPPRLPRPRPRPCYIPRP
  shrunken log2 fold change: -0.281

## RRIRMRPPRLPRPRPRPALMPRP
  shrunken log2 fold change: 0.114

## RRIRMRPPRLPRPRPRPTEGPRP
  shrunken log2 fold change: 0.269

## RRIRTRPPRLPRPRPRPVIEPRP
  shrunken log2 fold change: -0.408

## RRIRTRPPRLPRPRPRPGSLPRP
  shrunken log2 fold change: -0.0994

## RRIRPRPPRLPRPRPRPGKEPRP
  shrunken log2 fold change: 0.0995

## RRIRPRPPRLPRPRPRPTWYPRP
  shrunken log2 fold change: -0.133

## RRIRTRPPRLPRPRPRPEWKPRP
  shrunken log2 fold change: -0.076

## RRIRNRPPRLPRPRPRPRAKPRP
  shrunken log2 fold change: 0.0711

## RRIRDRPPRLPRPRPRPNFWPRP
  shrunken log2 fold change: 0.375

## RRIRSRPPRLPRPRPRPYKFPRP
  shrunken log2 fold change: -0.15

## RRIRGRPPRLPRPRPRPFSTPRP
  shrunken log2 fold change: -0.0796

## RRIRNRPPRLPRPRPRPYHTPRP
  shrunken log2 fold change: -0.0317

## RRIRNRPPRLPRPRPRPTLQPRP
  shrunken log2 fold change: 0.0909

## RRIRKRPPRLPRPRPRPLIQPRP
  shrunken log2 fold change: 0.112

## RRIRDRPPRLPRPRPRPQDPPRP
  shrunken log2 fold change: -0.213

## RRIRQRPPRLPRPRPRPWFQPRP
  shrunken log2 fold change: -0.0867

## RRIRMRPPRLPRPRPRPKANPRP
  shrunken log2 fold change: 1.96

## RRIRHRPPRLPRPRPRPLTNPRP
  shrunken log2 fold change: 0.185

## RRIRSRPPRLPRPRPRPTNLPRP
  shrunken log2 fold change: -0.215

## RRIRTRPPRLPRPRPRPVIRPRP
  shrunken log2 fold change: -0.176

## RRIRRRPPRLPRPRPRPLPDPRP
  shrunken log2 fold change: 0.112
